# Assay results from patent US20090068182A1 (ARIUS RESEARCH, published 2009).
# Residue numbers refer to the chain shown, from its start.
# B1: AR40A746.2.3 monoclonal antibody (hybridoma IDAC 141204-01) (antibody, V domains shown)
# VH: DVQLQESGPGLVKPSQSLSLTCTVTGYSITSDYAWNWIRQFPGNKLEWMGYISYSGFTNYNPSLKSRISITRDTSKNQFFLQLSSVTTEDTATYFCEGGNYRYSWFPYWGQGTLVTVSA
# VL: DIQMTQTTSSLSASLGDRVTISCSASQGISNYLNWYQQKPDGNVKLLIYYTSSLHSGVPSRFSGSGSGTDYSLTISNLEPEDIATYYCQQYSKLPYTFGGGTKLEIKR
# notes: also called IDAC 141204-01 antibody; mAR40A746.2.3
# What was measured:
# [1] = target: T1, human CD9 (human, UniProt P21926 2-228); assay: flow cytometry on colon cancer SW1116 cells, antibody at 20 micrograms/mL
# T1 construct: whole, on cells; Endogenous CD9; It stood on human cell lines (FACS, cell ELISA) and in tissue sections (IHC); For immunoprecipitation and Western blot it was solubilised from BxPC-3 cell lysate (band of about 25 kDa); also called AR40A746.2.3 antigen; IDAC 141204-01 antigen
# T1 sequence (looked up): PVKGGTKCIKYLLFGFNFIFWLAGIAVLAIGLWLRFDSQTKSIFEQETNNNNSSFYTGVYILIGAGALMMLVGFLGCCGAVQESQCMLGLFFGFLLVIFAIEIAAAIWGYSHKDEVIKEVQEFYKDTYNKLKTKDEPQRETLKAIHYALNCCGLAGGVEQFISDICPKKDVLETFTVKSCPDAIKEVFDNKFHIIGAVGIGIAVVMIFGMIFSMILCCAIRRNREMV
# Procedure: (§1) All cell lines were obtained from the American Type Tissue Collection (ATCC, Manassas, Va.) except for the melanoma cell lines WM9, WM35, WM164, WM451, WM537, WM852, WM983, WM1205 and WM1232 which were obtained from Dr. David Hogg (University of Toronto, Toronto, Canada).
# (§2) Cells were prepared for FACS by initially washing the cell monolayer with DPBS (without Ca⁺⁺ and Mg⁺⁺). Cell dissociation buffer (Invitrogen, Burlington, ON) was then used to dislodge the cells from their cell culture plates at 37° C. After centrifugation and collection, the cells were resuspended in DPBS containing MgCl₂ CaCl₂ and 2 percent fetal bovine serum at 4° C. (staining media) and counted, aliquoted to appropriate cell density, spun down to pellet the cells and resuspended in staining media at 4° C. in the presence of the test antibody (AR40A746.2.3) or control antibodies (isotype control, anti-EGFR). Isotype control and the test antibody were assessed at 20 micrograms/mL whereas anti-EGFR was assessed at 5 micrograms/mL on ice for 30 minutes. Prior to the addition of Alexa Fluor 546-conjugated secondary antibody the cells were washed once with staining media. […] Flow cytometric acquisition of the cells was assessed by running samples on a FACSarray™ using the FACSarray™ System Software (BD Biosciences, Oakville, ON). […]
# [2] = target: T1, human CD9; assay: flow cytometry on colon cancer Lovo cells, antibody at 20 micrograms/mL
# Procedure: (§3) David Hogg (University of Toronto, Toronto, Canada).
# (§4) Cells were prepared for FACS by initially washing the cell monolayer with DPBS (without Ca⁺⁺ and Mg⁺⁺). Cell dissociation buffer (Invitrogen, Burlington, ON) was then used to dislodge the cells from their cell culture plates at 37° C. After centrifugation and collection, the cells were resuspended in DPBS containing MgCl₂ CaCl₂ and 2 percent fetal bovine serum at 4° C. (staining media) and counted, aliquoted to appropriate cell density, spun down to pellet the cells and resuspended in staining media at 4° C. in the presence of the test antibody (AR40A746.2.3) or control antibodies (isotype control, anti-EGFR). Isotype control and the test antibody were assessed at 20 micrograms/mL whereas anti-EGFR was assessed at 5 micrograms/mL on ice for 30 minutes. Prior to the addition of Alexa Fluor 546-conjugated secondary antibody the cells were washed once with staining media. The Alexa Fluor 546-conjugated antibody in staining media was then added for 30 minutes at 4° C. The cells were then washed for the final time and resuspended in fixing media (staining media containing 1.5 percent paraformaldehyde). Flow cytometric acquisition of the cells was assessed by running samples on a FACSarray™ using the FACSarray™ System Software (BD Biosciences, Oakville, ON). […]
# (§5) FIG. 2 presents the mean fluorescence intensity fold increase above isotype control. […]
# [3] = target: T1, human CD9; assay: flow cytometry on melanoma A375 cells, antibody at 20 micrograms/mL
# Procedure: as §1, §2
# [4] = target: T1, human CD9; assay: flow cytometry on prostate cancer PC-3 cells, antibody at 20 micrograms/mL
# Procedure: as §1, §2
# [5] = target: T1, human CD9; assay: flow cytometry on melanoma WM852 cells, antibody at 20 micrograms/mL
# Procedure: as §1, §2
# [6] = target: T1, human CD9; assay: flow cytometry on melanoma WM164 cells, antibody at 20 micrograms/mL
# Procedure: as §1, §2
# [7] = target: T1, human CD9; assay: flow cytometry on breast cancer MDA-MB-231 cells, antibody at 20 micrograms/mL
# Procedure: as §1, §2
# [8] = target: T1, human CD9; assay: flow cytometry on melanoma A2058 cells, antibody at 20 micrograms/mL
# Procedure: as §1, §2
# [9] = target: T1, human CD9; assay: flow cytometry on melanoma WM1232 cells, antibody at 20 micrograms/mL
# Procedure: as §1, §2
# [10] = target: T1, human CD9; assay: flow cytometry on melanoma WM537 cells, antibody at 20 micrograms/mL
# Procedure: as §1, §2
# [11] = target: T2, AR40A746.2.3 antigen (CD9) in mouse normal tissues (mouse, UniProt P40240 1-226); assay: IHC on formalin fixed paraffin embedded normal tissue micro array
# T2 construct: whole, on cells; also called mouse CD9
# T2 sequence (looked up): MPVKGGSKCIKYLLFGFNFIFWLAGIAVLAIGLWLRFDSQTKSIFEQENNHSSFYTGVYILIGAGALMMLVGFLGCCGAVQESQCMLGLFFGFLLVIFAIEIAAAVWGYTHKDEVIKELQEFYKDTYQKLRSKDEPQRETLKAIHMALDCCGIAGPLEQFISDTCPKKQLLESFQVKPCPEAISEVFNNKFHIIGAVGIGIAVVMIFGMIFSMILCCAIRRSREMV
# Procedure: (§6) IHC studies were conducted to evaluate the cross reactivity of AR40A746.2.3 to non human species tissues in order to find suitable preclinical toxicology model(s). All tissues used were formalin fixed paraffin embedded. The binding of AR40A746.2.3 to 8 normal tissues of cynomolgus and rhesus monkey (Biochain, CA, USA) and 10 normal tissues of rabbit, rat, mouse and sheep (Zymed laboratories Inc, CA, USA) was performed using tissue micro arrays. Previous experiments were conducted to optimize the IHC binding conditions of the antibody. Tissue sections were deparaffinized by drying in an oven at 58° C. for 1 hour and dewaxed by immersing in xylene 5 times for 4 minutes each in Coplin jars. Following treatment through a series of graded ethanol washes (100 to 75 percent) the sections were re-hydrated in water. The slides were immersed in 10 mM citrate buffer at pH 6 (Dako, Toronto, Ontario) then microwaved at high, medium, and low power settings for 5 minutes each and finally immersed in cold PBS. […] Immunoreactivity of the primary antibodies was detected/visualized with HRP conjugated secondary antibodies as supplied (Dako Envision System, Toronto, Ontario) for 30 minutes at room temperature. […]
# [12] = target: T3, AR40A746.2.3 antigen (CD9) in rat normal tissues (rat, UniProt P40241 1-226); assay: as above
# T3 construct: whole, on cells; also called rat CD9
# T3 sequence (looked up): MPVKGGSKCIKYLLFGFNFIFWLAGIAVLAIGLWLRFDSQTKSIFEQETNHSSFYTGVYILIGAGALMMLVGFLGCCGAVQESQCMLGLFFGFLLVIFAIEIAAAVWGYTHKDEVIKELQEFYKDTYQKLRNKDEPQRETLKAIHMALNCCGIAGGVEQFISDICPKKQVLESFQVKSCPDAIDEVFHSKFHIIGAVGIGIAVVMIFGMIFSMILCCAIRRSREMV
# Procedure: as §6
# [13] = target: T1, human CD9; assay: flow cytometry on breast cancer MCF-7 cells, antibody at 20 micrograms/mL
# Procedure: as §1, §2
# [14] = target: T1, human CD9; assay: flow cytometry on ovarian cancer OVCAR-3 cells, antibody at 20 micrograms/mL
# Procedure: as §3, §4, §5
# [15] = target: T4, AR40A746.2.3 antigen (CD9) in rhesus monkey normal tissues (rhesus monkey, UniProt I0FWF4 2-228); assay: IHC on normal tissue micro arrays, 5 micrograms/mL
# T4 construct: whole, on cells; also called rhesus monkey CD9
# T4 sequence: T1 sequence (looked up) with N150D, F175L, V177I
# Procedure: as §6
# [16] = target: T1, human CD9; assay: flow cytometry on colon cancer DLD-1 cells, antibody at 20 micrograms/mL
# Procedure: as §1, §2
# [17] = target: T1, human CD9; assay: flow cytometry on melanoma WM35 cells, antibody at 20 micrograms/mL
# Procedure: as §1, §2
# [18] = target: T1, human CD9; assay: flow cytometry on melanoma WM9 cells, antibody at 20 micrograms/mL
# Procedure: as §1, §2
# [19] = target: T1, human CD9; assay: flow cytometry on prostate cancer DU-145 cells, antibody at 20 micrograms/mL
# Procedure: as §3, §4, §5
# [20] = target: T1, human CD9; assay: flow cytometry on non-cancer lung Hs888.Lu cells, antibody at 20 micrograms/mL
# Procedure: as §1, §2
# [21] = target: T1, human CD9; assay: flow cytometry on melanoma WM983 cells, antibody at 20 micrograms/mL
# Procedure: as §1, §2
# [22] = target: T1, human CD9; assay: flow cytometry on non-cancer skin CCD-27sk cells, antibody at 20 micrograms/mL
# Procedure: as §1, §2
# [23] = target: T1, human CD9; assay: flow cytometry on colon cancer HT-29 cells, antibody at 20 micrograms/mL
# Procedure: as §3, §4, §5
# [24] = target: T1, human CD9; assay: flow cytometry on pancreatic cancer BxPC-3 cells, antibody at 20 micrograms/mL
# Procedure: as §1, §2
# [25] = target: T1, human CD9; assay: flow cytometry on melanoma WM451 cells, antibody at 20 micrograms/mL
# Procedure: as §1, §2
binder,measurement,setting,value
B1,mean fluorescence intensity fold increase above isotype control,[1],13.3 fold
same,mean fluorescence intensity fold increase above isotype control,[2],31.6 fold
same,mean fluorescence intensity fold increase above isotype control,[3],4.7 fold
same,mean fluorescence intensity fold increase above isotype control,[4],37.8 fold
same,mean fluorescence intensity fold increase above isotype control,[5],4.2 fold
same,mean fluorescence intensity fold increase above isotype control,[6],3.3 fold
same,mean fluorescence intensity fold increase above isotype control,[7],19.8 fold
same,mean fluorescence intensity fold increase above isotype control,[8],2.7 fold
same,mean fluorescence intensity fold increase above isotype control,[9],3.4 fold
same,mean fluorescence intensity fold increase above isotype control,[10],2.6 fold
same,binding result,[11],no binding (tested: 5 micrograms/mL)
same,binding result,[12],no binding (tested: 5 micrograms/mL)
same,mean fluorescence intensity fold increase above isotype control,[13],107 fold
same,mean fluorescence intensity fold increase above isotype control,[14],64.9 fold
same,binding result,[15],binds
same,mean fluorescence intensity fold increase above isotype control,[16],50.5 fold
same,mean fluorescence intensity fold increase above isotype control,[17],13.8 fold
same,mean fluorescence intensity fold increase above isotype control,[18],4.8 fold
same,mean fluorescence intensity fold increase above isotype control,[19],30.4 fold
same,mean fluorescence intensity fold increase above isotype control,[20],20.5 fold
same,mean fluorescence intensity fold increase above isotype control,[21],3.9 fold
same,mean fluorescence intensity fold increase above isotype control,[22],8.7 fold
same,mean fluorescence intensity fold increase above isotype control,[23],80.5 fold
same,mean fluorescence intensity fold increase above isotype control,[24],18.4 fold
same,mean fluorescence intensity fold increase above isotype control,[25],7 fold
